Residue numbers refer to the chain shown, from its start. Several values for one entry are separate records, joined by “and”; a condition that tells them apart may be missing. Identical values can stand only once.
T1: recombinant human TIMP-3 (human, UniProt P35625 24-211)
T1 sequence (looked up): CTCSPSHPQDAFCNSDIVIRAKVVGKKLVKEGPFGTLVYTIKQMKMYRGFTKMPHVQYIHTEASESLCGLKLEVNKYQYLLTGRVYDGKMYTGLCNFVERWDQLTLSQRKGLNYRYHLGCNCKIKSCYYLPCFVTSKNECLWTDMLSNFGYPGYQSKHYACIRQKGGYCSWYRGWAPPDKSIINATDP

T2: recombinant mouse TIMP-3 (mouse, UniProt P39876 24-211)
T2 construct: also called MuTIMP-3
T2 sequence (looked up): T1 sequence (looked up) with T51S, D87E, Q103H, I183S

B1: LRP-1 peptide LA15-17 (peptide)
chain: CPLNYFACPSGRCIPMSWTCDKEDDCEHGEDETHCNKFCSEAQFECQNHRCISKQWLCDGSDDCGDGSDEAAHCEGKTCGPSSFSCPGTHVCVPERWLCDGDKDCADGADESIAAGCLYNST
notes: The end 2817 is inferred from the end of LA17
B2: LRP-1 peptide LA15 (peptide)
chain: not shown
notes: The end 2733 is inferred from the start of LA16 (2734)
B3: LRP-1 peptide LA25-26 (peptide)
chain: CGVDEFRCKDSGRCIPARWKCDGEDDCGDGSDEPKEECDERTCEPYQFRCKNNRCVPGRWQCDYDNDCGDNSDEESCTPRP
B4: LRP-1 peptide LA3-4 (peptide)
chain: not shown
notes: Tags implied (Ni-NTA, anti-HA detection), not described
B5: LRP-1 peptide LA4 (peptide)
chain: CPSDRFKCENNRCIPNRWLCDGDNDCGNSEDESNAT
notes: as for B4
B6: LRP-1 peptide LA5-6 (peptide)
chain: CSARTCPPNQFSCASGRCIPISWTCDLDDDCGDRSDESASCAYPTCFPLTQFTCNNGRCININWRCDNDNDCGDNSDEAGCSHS
notes: as for B4
B7: LRP-1 peptide LA24-25 (peptide)
chain: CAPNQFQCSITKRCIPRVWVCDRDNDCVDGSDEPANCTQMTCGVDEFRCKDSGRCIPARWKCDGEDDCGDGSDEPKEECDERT
notes: as for B4
B8: LRP-1 peptide LA24 (peptide)
chain: not shown
notes: as for B4
B9: LRP-1 peptide LA25 (peptide)
chain: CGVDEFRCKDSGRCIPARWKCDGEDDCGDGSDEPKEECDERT
notes: as for B4
B10: LRP-1 peptide LA8-10 (peptide)
chain: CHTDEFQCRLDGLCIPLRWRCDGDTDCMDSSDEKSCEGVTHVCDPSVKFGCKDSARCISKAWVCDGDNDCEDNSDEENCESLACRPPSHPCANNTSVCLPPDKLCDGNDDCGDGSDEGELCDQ
notes: The end 1184 is inferred from the end of Cluster II; Tags implied, not described

What follows are binders tested against T3, recombinant TIMP-3 (human or mouse; Table 2 does not say which) (assay: binding ELISA, Assay 1).
T3 construct: The methods say 'human or mouse TIMP-3'

EC50 | Binder
193 nM | B1

The binders below were run against T3, recombinant TIMP-3 (human or mouse; …) (assay: binding ELISA, Assay 2).

EC50 | Binder
~5000 nM | B2
673 nM | B3
289 nM | B4
900 nM | B5
400 nM | B6
211 nM | B7
~500 nM | B8
1220 nM | B9

The binders below were run against T3, recombinant TIMP-3 (human or mouse; …) (assay: binding ELISA, Assay 3).

EC50 | Binder
~1500 nM | B2
191 nM | B1
500 nM | B4
~3000 nM | B5
512 nM | B6
436 nM | B7
657 nM and 1040 nM | B10
~1000 nM | B8
~1000 nM | B9

Each binder was assayed against T1, recombinant human TIMP-3 (assay: cell-based or functional assay).

% of the inhibitory activity of TIMP-3 + peptide compared to TIMP-3 alone, 16 nM | % of the inhibitory activity of TIMP-3 + peptide compared to TIMP-3 alone, 80 nM | % of the inhibitory activity of TIMP-3 + peptide compared to TIMP-3 alone, 400 nM | % of the inhibitory activity of TIMP-3 + peptide compared to TIMP-3 alone, 2000 nM | Binder
104% | 95% | 67% | 58% | B2
95% | 82% | 83% | 91% | B1
97% | 101% | 105% | 101% | B3
104% |  | 84% | 91% | B4
97% | 80% | 72% | 65% | B6
90% | 88% | 87% | 92% | B7
94% | 89% | 84% | 93% | B10
104% | 104% |  | 81% | B8
96% | 95% | 94% | 94% | B9

The binders below were run against MMP-13 (UniProt P45452 20-471, limits assumed) (assay: cell-based or functional assay).

Direct Inhibition of MMP13 (% decrease), 1000 nM | Binder
61% | B2
16% | B6
-6% | B10
-22% | B8

What follows are binders tested against T1, recombinant human TIMP-3 (assay: direct ELISA, coated huTIMP-3).
Description: (§1) After incubation, the coating solution is removed and replaced with 250 microL/well of blocking buffer (1% BSA, TBS [pH 7.5], 1 mM CaCl₂) and incubated with shaking for 1 hour at room temperature. The plates are then washed three times with 200 microL/well with wash buffer 1 (TBS [pH 7.5], 1 mM CaCl₂). The LRP-1 peptides are titrated in assay buffer (0.1% BSA, TBS [pH 7.5], 1 mM CaCl₂, 0.02% Tween-20) in a separate polypropylene non-treated round-bottom 96-well plate (BD Falcon™) starting at 1 microM concentration and then diluted serially 4-fold for 8-points, with the last point buffer only. Then 100 microL/well of the diluted LRP-1 peptide titration is added to the TIMP-3 coated plate and allowed to bind for 1.5 hour at room temperature with shaking. After incubation, the plate is washed three times with 200 microL/well of wash buffer 2 (TBS [pH 7.5], 1 mM CaCl₂, 0.02% Tween-20). […] The assay plate is then washed three times with 200 microL/well with wash buffer 2. The plate is developed by adding 100 microL/well of 1:1 mixture of TMB and H₂O₂ (Pierce, Fisher Thermo Scientific, Rockford Il.), the reaction is stopped by adding 100 microL/well 2NH₂SO₄ (VWR), and read on a SpectraMax microplate reader (Molecular Devices, Sunnyvale, Calif.) at OD450 nm using SOFTmax Pro software version 3.1.2. Data is analyzed using GraphPad Prism 4.01 software. Binding of LRP-1 peptides to TIMP-3 is expressed as binding EC50.

EC50 | Binder
901 nM | B2
510 nM | B1
167 nM and 99 nM | B3
226 nM | B4
162 nM | B7
68 nM | B8
742 nM | B9

These binders were tested against T2, recombinant mouse TIMP-3 (assay: direct ELISA, coated muTIMP-3).
Description: as §1

EC50 | Binder | binding result
306 nM | B1 | 
117 nM and 80 nM | B3 | 
155 nM | B4 | 
 | B5 | no binding (tested: titration from 1 microM)
332 nM | B6 | 
124 nM | B7 | 
696 nM | B10 | 
66 nM | B8 | 

The binders below were run against T3, recombinant TIMP-3 (human or mouse; …) (assay: AlphaScreen, biotinylated TIMP-3, Assay 1).
Description: (§2) Peptides were also evaluated by AlphaScreen® (Amplified Luminescent Proximity Homogeneous Assay; PerkinElmer, Waltham, Mass.) a very sensitive non-radioactive homogeneous assay technology that allows the screening of a large range of biological interactions and activities, substantially according to the manufacturer's instructions. Briefly, all dilutions are made in AlphaScreen® Buffer: [40 mM HEPES pH 7.5, 100 mM NaCl, 1 mM CaCl2, 0.1% BSA, 0.05% Tween-20]. The LRP-1 peptides are titrated in a separate polypropylene 96-well plate (Falcon) starting at 4 microM concentration and then diluted serially 3-fold for 12-points, with the last point buffer only. First 2 microL/well of protein titration curve is added to white, small volume, 384-well assay plate (Greiner Bio-One, Stonehouse, UK) in duplicate. Next, 2 microL of biotinylated (AFS, in-house conjmicroGation) recombinant human or mouse TIMP-3, is added at 12 nM (or 3 nM final assay concentration) to the assay plate. Lastly, in subdued light 4 microL of a mixture of streptavidin donor beads, anti-mouse IgG acceptor beads (PerkinElmer) both diluted to 20 microG/mL (10 microG/mL final assay concentration) and 2 nM (1 nM final concentration) rat-anti-HA (clone3F10)-HRP (Roche Diagnostics) is added to the plates. Plates containing 8 microL final assay volme are covered with TopSeal A (to prevent evaporation), spun quickly at 1000 rpm, and incubated overnight (covered with foil to prevent light exposure) before reading on Fusion plate reader (PerkinElmer) using AlphaScreen® parameters (excitation 680 nm and emission 520-620 nm). Data is analyzed using GraphPad Prism 4.01 software. Binding to TIMP-3 is reported as total signal (cps).

total signal (cps) | Binder
2200 cps | B2
90000 cps | B1
20000 cps | B3
9000 cps | B4
2200 cps | B5
6000 cps | B6
290000 cps | B7
110000 cps | B10
2200 cps | B8
5000 cps | B9

The binders below were run against T3, recombinant TIMP-3 (human or mouse; …) (assay: AlphaScreen, biotinylated TIMP-3, Assay 2).
Description: as §2

total signal (cps) | Binder
2000 cps | B2
70000 cps | B1
5000 cps | B3
3500 cps | B4
2000 cps | B5
4000 cps | B6
130000 cps | B7
100000 cps | B10
2000 cps | B8
2000 cps | B9

The binders below were run against T1, recombinant human TIMP-3 (assay: indirect ELISA, huTIMP-3 captured by anti-TIMP-3 clone 277128).
Description: Then 100 microL/well of the diluted LRP-1 peptide titration is added to the TIMP-3 coated plate and allowed to bind for 1.5 hour at room temperature with shaking. After incubation, the plate is washed three times with 200 microL/well of wash buffer 2 (TBS [pH 7.5], 1 mM CaCl₂, 0.02% Tween-20). […] The assay plate is then washed three times with 200 microL/well with wash buffer 2. The plate is developed by adding 100 microL/well of 1:1 mixture of TMB and H₂O₂ (Pierce, Fisher Thermo Scientific, Rockford Il.), the reaction is stopped by adding 100 microL/well 2NH₂SO₄ (VWR), and read on a SpectraMax microplate reader (Molecular Devices, Sunnyvale, Calif.) at OD450 nm using SOFTmax Pro software version 3.1.2. Data is analyzed using GraphPad Prism 4.01 software. Binding of LRP-1 peptides to TIMP-3 is expressed as binding EC50.
After incubation, the plate contents are discarded and 250 microL/well of blocking buffer (1% BSA, TBS [pH 7.5], 1 mM CaCl₂) is added to the plate which is incubated with shaking for 1 hour at room temperature. The plate is then washed three times with 200 microL/well with wash buffer 1 (TBS [pH 7.5], 1 mM CaCl₂) followed by the addition of 100 microL of 20 nM recombinant human TIMP-3. The plate is incubated at room temperature for 1 hour. The LRP-1 peptides are titrated as described previously, and 100 microL/well of the diluted LRP-1 peptide titration is added to the TIMP-3 coated plate and allowed to bind for 1.5 hour at room temperature with shaking. After incubation, the plate is washed and the ELISA performed substantially as described previously for the direct binding ELISA.

EC50 | Binder
378 nM | B2
100 nM | B1
41 nM and 20 nM | B3
81 nM | B4
78 nM | B6
32 nM | B7
219 nM | B10
10 nM | B8
447 nM | B9

Reference: patent US20120231013A1 (Amgen, published 2012)
